Results from patent US20250082754A1 (NANJING LEGEND BIOTECH, published 2025).

Columns and labels:
[1] = target: T1, Human CD33 C2 domain (human, UniProt P20138); test: +/- column 'Human CD33 C2 domain' of the drawn table; legend: cell binding properties; assay not named on the sheet
T1 construct: C2 domain only; also called C2-set Ig-like domain of human CD33

[2] = target: T2, human CD33 protein (human, UniProt P20138 18-259); test: SPR (BIACORE T200), antibody fragment captured by affinity tag, 100 nM human CD33 flowed over, estimate from one concentration; column KD; no unit printed on the sheet
T2 construct: extracellular domain; It is not tied to the protein used in the screen, so it is not used here; also called recombinant human CD33 protein; CD33 ECD proteins
Description: The scFv proteins in the supernatant were analyzed for their ability to bind to CD33 ECD proteins by ELISA and CD33-overexpressing MV4-11 cell lines by FACS. All binders were sequenced and some were subjected to for further characterization including affinity ranking by surface plasmon resonance (SPR) on a BIACORE® T200 instrument. The experiments were carried out as follows: the crude […] proteins were captured through an affinity tag onto the sensorchip. High-concentration (100 nM) of human CD33 flowed over the sensorchip surface, and was allowed to bind the antibody fragments. On-rate (kon) and off-rate (koff) were roughly calculated based on the association and dissociation of one antigen concentration, and were used to estimate the equilibrium dissociation constant (KD).

T1 sequence (P20138 145-228 limits assumed): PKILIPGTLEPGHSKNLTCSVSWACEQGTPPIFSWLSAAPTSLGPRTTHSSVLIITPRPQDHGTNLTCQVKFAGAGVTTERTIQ
T2 sequence (P20138 18-259): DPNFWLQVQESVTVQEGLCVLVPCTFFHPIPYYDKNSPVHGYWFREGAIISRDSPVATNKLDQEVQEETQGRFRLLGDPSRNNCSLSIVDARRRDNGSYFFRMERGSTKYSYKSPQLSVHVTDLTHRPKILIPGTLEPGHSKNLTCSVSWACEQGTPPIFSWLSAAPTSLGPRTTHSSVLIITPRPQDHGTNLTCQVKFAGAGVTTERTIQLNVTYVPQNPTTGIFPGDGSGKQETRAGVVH

B1: AS141962 (scFv)
scFv (VL-linker-VH): QAVLTQPSSVSGTPGQTVTISCAGTSSDVGSTNYVSWYRQLPGTAPKLLIYQVNYRASGIADRFSGSKSGNTASLTISGLQSADEADYYCASRSGNNFVFGGGTHLTVLGGGGSGGGGSGGGGSEVQLVESGGGLVQPGGSLRLSCAASGFTFSDFSIFWVRQAPGKGLEWVSSINFGGDRTYYADSVKGRFTISRNNAENTVYLQMNSLKAEDTAAYHCVTTAVALADCSGGCYTPGAFNAWGQGTLVTISS
notes: Format as for f1; also called anti-CD33 IgG1 AS141962; AS141962 scFv
B1 was tested, and the binding result [1] was “no binding (tested: not given)” and the Kd [2] was 3.06 nM.

B2: AS138521 (scFv)
scFv (VL-linker-VH): SSELTQPAAVSVSLGETARITCQGGNFGSYYATWYQQKPGQAPVLVIYANSNRPSGIPERFSGSSSGGTATLTISGAQAEDEADYYCQSYDNSANAVFGGGTHLTVLGGGGSGGGGSGGGGSEVQLVESGGGLVQPGGSLRLSCAASGSTFWSYYMSWVRQAPGKGLEWVSSIYSDGSYAYYADSVKGRFTISRDNAKNTVYLQMNSLKSEDTALYYCATAPTPDGGSWLWYNYWGQGTQVTVSS
notes: Format as for f1; also called anti-CD33 IgG1 AS138521; AS138521 scFv
For B2, the binding result [1] was “no binding (tested: not given)” and the Kd [2] was 0.364 nM.

B3: AS141837 (scFv)
scFv (VL-linker-VH): SSELTQPSAVSVSLGETARITCQGVNVGSYYASWYQQKPGQAPVLVIYGNSNRPSGIPERFSGSKSGGTATLTISGAQAEDEADYYCQSADSSAFNAVFGGGTHLTVLGGGGSGGGGSGGGGSQVQLVQSGGGLVQPGGSLRLSCAASGFTFSSYDMTWVRQAPGKGLEWVSAVNSGGGTTYYADSVKGRFTISRDNAKNTLYLQMNSLKTEDTAVYYCATAIEREEDPLWVGPEYNTWGQGTQVTVSS
notes: Format as for f1; also called anti-CD33 IgG1 AS141837; AS141837 scFv
In the case of B3, the binding result [1] is reported as “no binding (tested: not given)” and the Kd [2] is reported as 21.4 nM.

B4: AS142077 (scFv)
scFv (VL-linker-VH): SYELTQPSAMSVSLGETTRITCQGGNIESSYASWYQQKPGQAPALVIYEDSERPSRIPERFSGSSSGGTATLTISGAQAEDEADYYCQSADSSGYNPVFGGGTHLTVLGGGGSGGGGSGGGGSQVQLVESGGGLVQPGGSLRLSCAASGFTFSSYAMSWVRQAPGKGLEWVSGINSGGGSTYYADSVKGRFTISRDNAKNTLYLQLNSLKTEDTAMYYCAKHLLIIYSDYDVRGSEALDAWGQGTLVTVSS
notes: Format as for f1; also called anti-CD33 IgG1 AS142077; AS142077 scFv
B4 was tested, and the binding result [1] was “no binding (tested: not given)” and the Kd [2] was 0.348 nM.

B5: AS141974 (scFv)
scFv (VL-linker-VH): NFMLTQPAAVSVSLGETARITCQGGNFGSYYASWYQQKPGQAPVLVIYANSNRPSGIPERFSGSSSGGTATLTISGAQAEDEADYYCQSYDSSAAVFGGGTHLTVLGGGGSGGGGSGGGGSQVQLQESGGGLVQPGGSLRLSCAASGFTFSSYAMSWVRQAPGKGLEWVSAINSGGGSTYYADSVKGRFTISRDNAKNTLYLQLNSLKTEDTAMYYCAKEGGLYYSDYDELYFGYWGQGTQVTVSS
notes: Format as for f1; also called anti-CD33 IgG1 AS141974; AS141974 scFv
For B5, the binding result [1] was “no binding (tested: not given)” and the Kd [2] was 1.79 nM.

B6: AS199772 (scFv)
scFv (VL-linker-VH): SYELTQSPSVSVALRQAAKITCRGDNIETKYAYWYQQKPGQSPLLVIYKDDNRPSGIPERFSGSNSGNMATLTISGAQAEDEADYYCQVWDSSANWVFGGGTHLTVLGGGGSGGGGSGGGGSQVQLQESGGGLVQPGGSLRLSCAASGFTFSSYWMYWVRQAPGKGLEWVSAMNTGGGSTYYGDSVKGRFTVSRDNAKNTLALQMNSLKPEDTALYYCARSWGGMYSGGYYEYSGMDYWGKGTLVTVSS
notes: Format as for f1; also called anti-CD33 IgG1 AS199772; AS199772 scFv
B6 gave a Kd [2] of 0.067 nM.

B7: AS141869 (scFv)
scFv (VL-linker-VH): NFMLTQPSAVSVSLGETARITCQGGNVGTSYASWYQQKPGQAPVLVIYGNSNRPSGIPERFSGSKSGGTATLTISGAQAEDEADYYCQSADSRGYVAFGGGTHLTVLGGGGSGGGGSGGGGSQVQLQESGGGLVQPGGSLRLSCAASGFTFSSYDITWVRQAPGKGLEWVSAINSGGNSTYYADSVKGRFTISRDNAKNTLYLQMNSLKTEDTAVYYCATAIEREEDPLWVGPEYNYWGQGTQVTVSS
notes: The legend calls it anti-CD33 IgG1; also called anti-CD33 IgG1 AS141869; AS141869 scFv
B7 was tested, and the binding result [1] was “no binding (tested: not given)” and the Kd [2] was 11.5 nM.

B8: AS200728C (scFv)
scFv (VL-linker-VH): QAVVTQLSSMSGSPGQTVTITCTGSSSNIGGGYYLSWYQQLPGTAPKLLIYNVNNRASGVPNRFSGSKTGSLASLTITGLQAEDEADYYCGSYDESLSYVFGGGTHLTVLGGGGSGGGGSGGGGSQVQLVESGGGLVQPGGSLRVSCAASGFTFKNYYMGWVRQAPGKGLEWISGINSGGEVTTYADSVKDRFTISRDNAKNTLYLQMNSLKPDDTALYYCAGGEGSSWYPDYYYGNGYWGEGTLITVSS
notes: Format as for f1; also called anti-CD33 IgG1 AS200728C; AS200728C scFv
B8 gave a Kd [2] of 0.24 nM.

B9: AS188893 (scFv)
scFv (VL-linker-VH): SYELTQPSAVSVSLGQTARITCQGGNLGTSYVHWYQQKPGQAPVLVIYGDDSRPSGIPERFSGSSSGGTATLTISGAQAEDEADYYCQSYDSSSSVFGGGTHLTVLGGGGSGGGGSGGGGSQVQLQESGGGLVQPGGSLRLSCAASGFTFSNNWMYWVRQAPGKGLEWVSSIATGDGSTNSADSVKGRFTISRDNTKNMLYLQMNSLKSEDTALYYCAKGVNIDHDVGAGDYWGQGTQVTVSS
notes: Format as for f1; also called anti-CD33 IgG1 AS188893; AS188893 scFv
For B9, the Kd [2] was 0.064 nM.

B10: AS187809 (scFv)
scFv (VL-linker-VH): EIVMTQSPSSVTASAGEKVTINCKSSQSVLYSSNQKSYLAWYQQRPGQSPRLLIYYASTRESGVPDRFSGSGSTTDFTLTISSVQPEDAAVYYCQQGYSAPVTFGQGTKLELKGGGGSGGGGSGGGGSQVQLQESGGGLVQPGGSLRLSCAASGFTFSRYYMSWVRQAPGKGLEWVSSIYSDGSNTYYTDSVKGRFTISRDNAKNTVYLQMNSLKSEDTAQYYCATDRDCSGIHCGAFGYWGQGTQVTVSS
notes: Format as for f1; also called anti-CD33 IgG1 AS187809; AS187809 scFv
B10 was tested, and the Kd [2] was 1.08 nM.

B11: AS199911 (scFv)
scFv (VL-linker-VH): SYELTQPSALSVTLGQSAKITCQGDNFETTYVHWYQQKPGQAPVLVIYNDDSRPSGIPERFSGSNSGDRATLTISGAQAEDEGDYYCQSADTSGNAYVFGGGTHLTVLGGGGSGGGGSGGGGSAVQLVESGGGLVQPGGSLRLSCAASGFTFSRSDMSWVRQAPGKGLEWVSYINSGGGTNRYADSVKARFTIFRDNAKNTLYLQMNTLKPEDTAVYYCAKSGFDSDWIFGYLERWGQGTLVTVSS
notes: Format as for f1; also called anti-CD33 IgG1 AS199911; AS199911 scFv
Binder B11 has a Kd [2] of 0.35 nM.

B12: AS199757 (scFv)
scFv (VL-linker-VH): NFMLTQPPSVSGSPGQKFTISCTGSSNNIGDNYVNWYQHLPGTAPKLLIYSNNNRASGVPDRFSGSKSGSSASLTITGLQAEDEADYYCSSWDDSLSGFVFGGGTHLTVLGGGGSGGGGSGGGGSAVQLVESGGGLVQPGGSLRLTCAASGFTFDNYGMSWVRQAPGKGLEWVSAIMWNGGTTYYAEPMKGRFTISRDNAKNTVYLQMNSLKSEDTAVYYCARHGSSWYAMDYWGQGTQVTVSS
notes: Format as for f1; also called anti-CD33 IgG1 AS199757; AS199757 scFv
B12 gave a Kd [2] of 1.5 nM.

B13: AS142096 (scFv)
scFv (VL-linker-VH): NFMLTQPSAVSVSLGETARITCQGGKVGSNYASWYQQKPGQAPVLVIYGDDSRPSGIPERFSGSSSGGTATLTISGAQAEDEADYYCQSYDSSGYNAVFGGGTHLTVLGGGGSGGGGSGGGGSQVQLVESGGGLVQPGGSLRLSCAASGFTFFSYYMSWVRQAPGKGLEWVSSIYSDGSNTYYADSVKGRFTISRDNAKNTVYLQMNSLKSEDTALYYCATAGYYSDYVEFEYWGQGILVTVSS
notes: Format as for f1; also called anti-CD33 IgG1 AS142096; AS142096 scFv
With B13 the binding result [1] was “no binding (tested: not given)” and the Kd [2] was 0.27 nM.

B14: AS141996 (scFv)
scFv (VL-linker-VH): SSELTQPSAVSVSLGETARITCQGGNVGSSYASWYQQKPGQAPVLVIYEDSERPSGIAERFSGSSSGGTATLTISGAQAEDEADYYCQSADNNGAVFGGGTHLTVLGGGGSGGGGSGGGGSEVQVVESGGGLVQPGGSLRLSCAGSGFTFSSYAMSWVRQAPGKGLEWVSTINSGGGSTYYADSVKGRFTISRDNAKNTLYLQLNSLKTEDTAMYYCANHLLIIYSDYDVRGSEAWETWGQGTLVTVSS
notes: Format as for f1; also called anti-CD33 IgG1 AS141996; AS141996 scFv
For B14, the binding result [1] was “no binding (tested: not given)” and the Kd [2] was 0.0624 nM.
